Results from US20140087995A1 (published 2014).
Numbered stars: 1 amine (or outer) side, 2 acyl side, 3 side chain; on linkers, the order of the positions; unused ones are H or OH. Bridge positions count the residues as written; N and C are the ends. Side chains are listed from the residue outwards. Ends that are not written are not given here. * marks the point of attachment. C20 diacid = O=C(O)CCCCCCCCCCCCCCCCCCC(=O)*; γGlu = O=C(O)[C@H](CCC(=O)[*:2])N[*:1]; AEEA = NCCOCCOCC(=O)O

T1: human calcitonin receptor (human, UniProt P30988 25-474)
T1 construct: whole, on cells; Used as cell membranes; also called hCTR; hCT
T1 sequence (looked up): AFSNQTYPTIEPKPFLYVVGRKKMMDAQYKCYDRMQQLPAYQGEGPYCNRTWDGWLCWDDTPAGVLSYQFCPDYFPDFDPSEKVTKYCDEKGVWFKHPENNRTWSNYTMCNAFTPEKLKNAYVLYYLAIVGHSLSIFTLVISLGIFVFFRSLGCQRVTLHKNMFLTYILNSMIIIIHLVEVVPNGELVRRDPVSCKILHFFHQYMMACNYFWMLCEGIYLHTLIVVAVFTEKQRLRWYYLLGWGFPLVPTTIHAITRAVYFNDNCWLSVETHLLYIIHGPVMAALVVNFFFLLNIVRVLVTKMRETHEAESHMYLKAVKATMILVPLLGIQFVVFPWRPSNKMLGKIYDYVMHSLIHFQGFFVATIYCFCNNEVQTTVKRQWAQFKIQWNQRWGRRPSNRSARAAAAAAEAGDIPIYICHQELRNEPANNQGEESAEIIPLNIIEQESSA


Key:
[1] = target: T1, human calcitonin receptor; assay: ratio of hCTR IC50 to hAmylin-R IC50 (reference: human amylin receptor)
Description: The resulting pellet was resuspended, homogenized and centrifuged (20.000 rpm, 15 min) in a buffer containing 20 mM Na-HEPES and 0.1 mM EDTA (pH 7.4, buffer 2). The resulting pellet was resuspended in buffer 2 and protein concentration was measured (BCA protein Assay, Pierce). The homogenate was kept cold during the whole procedure. The membranes were kept at −80° C. until use. The assay was performed in a 384 well Optiplate (PerkinElmer) in a total volume of 40 ul. Membranes were mixed with SPA beads. Final concentration of membranes 35 ng/μL final and SPA beads was 0.05 mg/well. Test-compounds were dissolved in DMSO and further diluted in assay buffer (50 mM Hepes, pH 7.4, 1 mM CaCl2, 5 mM MgCl₂, 0.1% OA and 0.02% Tween20). […] The final mixture was incubated with shaking at 400 rpm for 120 min at 25° C. prior to centrifugation (1500 rpm, 10 min). Samples were analyzed on TopCounter™ (Packard). The IC₅₀ was calculated using (one site binding competition analysis) GraphPad Prism5 as a measure of receptor affinity.
Membranes were prepared in the following way; the cells were rinsed with PBS and incubated with Versene for approximately 5 min before harvesting. The cells were flushed with PBS and the cell-suspension was centrifuged for 5 min at 1000 rpm. Cells were homogenized (Ultrathurrax) in a buffer containing 20 mM Na-HEPES and 10 mM EDTA (pH 7.4) and centrifuged at 20.000 rpm for 15 min. The resulting pellet was resuspended, homogenized and centrifuged (20.000 rpm, 15 min) in a buffer containing 20 mM Na-HEPES and 0.1 mM EDTA (pH 7.4, buffer 2). The resulting pellet was resuspended in buffer 2 and protein concentration was measured (BCA protein Assay, Pierce). The homogenate was kept cold during the whole procedure. The membranes were kept at −80° C. until use. Assay was performed in a 384 well Optiplate (PerkinElmer) in a total volume of 40 ul. Membranes were mixed with SPA beads.

[2] = target: T1, human calcitonin receptor; assay: SPA competition on BHK cell membranes, 125I-calcitonin as radioligand (Assay VII)
Description: Membranes were prepared in the following way; the cells were rinsed with PBS and incubated with Versene for approximately 5 min before harvesting. The cells were flushed with PBS and the cell-suspension was centrifuged for 5 min at 1000 rpm. Cells were homogenized (Ultrathurrax) in a buffer containing 20 mM Na-HEPES and 10 mM EDTA (pH 7.4) and centrifuged at 20.000 rpm for 15 min. The resulting pellet was resuspended, homogenized and centrifuged (20.000 rpm, 15 min) in a buffer containing 20 mM Na-HEPES and 0.1 mM EDTA (pH 7.4, buffer 2). The resulting pellet was resuspended in buffer 2 and protein concentration was measured (BCA protein Assay, Pierce). The homogenate was kept cold during the whole procedure. The membranes were kept at −80° C. until use. Assay was performed in a 384 well Optiplate (PerkinElmer) in a total volume of 40 ul. Membranes were mixed with SPA beads. Final concentration of membranes 35 ng/μL final and Final concentration of SPA beads was 0.05 mg/well. Test-compounds were dissolved in DMSO and further diluted in assay buffer (50 mM Hepes, pH 7.4, 1 mM CaCl2, 5 mM MgCl₂, 0.1% OA and 0.02% Tween20). […] The final mixture was incubated for 120 min with shaking at 400 rpm at 25° C. prior to centrifugation (1500 rpm, 10 min). Samples were analyzed on TopCounter™ (Packard). The […] was calculated using (one site binding competition analysis) GraphPad Prism5 as a measure of receptor affinity.

| Binder | Ratio hCT/hAmylin binding [1] | IC50 [2] [nM] |
| --- | --- | --- |
| K([AEEA-γGlu-C20 diacid])CNTATCATQRLARFLRHSSPNFGAIPSSTNVGSNTY-NH2 (disulfide 2-7; N-terminus assumed; SMILES CC[C@H](C)[C@H](NC(=O)[C@H](C)NC(=O)CNC(=O)[C@H](Cc1ccccc1)NC(=O)[C@H](CC(N)=O)NC(=O)[C@@H]1CCCN1C(=O)[C@H](CO)NC(=O)[C@H](CO)NC(=O)[C@H](Cc1c[nH]cn1)NC(=O)[C@H](CCCNC(=N)N)NC(=O)[C@H](CC(C)C)NC(=O)[C@H](Cc1ccccc1)NC(=O)[C@H](CCCNC(=N)N)NC(=O)[C@H](C)NC(=O)[C@H](CC(C)C)NC(=O)[C@H](CCCNC(=N)N)NC(=O)[C@H](CCC(N)=O)NC(=O)[C@@H](NC(=O)[C@H](C)NC(=O)[C@@H]1CSSC[C@H](NC(=O)[C@@H](N)CCCCNC(=O)COCCOCCNC(=O)CC[C@H](NC(=O)CCCCCCCCCCCCCCCCCCC(=O)O)C(=O)O)C(=O)N[C@@H](CC(N)=O)C(=O)N[C@@H]([C@@H](C)O)C(=O)N[C@@H](C)C(=O)N[C@@H]([C@@H](C)O)C(=O)N1)[C@@H](C)O)C(=O)N1CCC[C@H]1C(=O)N[C@@H](CO)C(=O)N[C@@H](CO)C(=O)N[C@H](C(=O)N[C@@H](CC(N)=O)C(=O)N[C@H](C(=O)NCC(=O)N[C@@H](CO)C(=O)N[C@@H](CC(N)=O)C(=O)N[C@H](C(=O)N[C@@H](Cc1ccc(O)cc1)C(N)=O)[C@@H](C)O)C(C)C)[C@@H](C)O, also called compound 82) | 140 | 88.8 |
| K([AEEA-γGlu-C20 diacid])CNTATCATQRLANFLRHSSPNFGAIPSSTNVGRNTY-NH2 (disulfide 2-7; N-terminus assumed; SMILES CC[C@H](C)[C@H](NC(=O)[C@H](C)NC(=O)CNC(=O)[C@H](Cc1ccccc1)NC(=O)[C@H](CC(N)=O)NC(=O)[C@@H]1CCCN1C(=O)[C@H](CO)NC(=O)[C@H](CO)NC(=O)[C@H](Cc1c[nH]cn1)NC(=O)[C@H](CCCNC(=N)N)NC(=O)[C@H](CC(C)C)NC(=O)[C@H](Cc1ccccc1)NC(=O)[C@H](CC(N)=O)NC(=O)[C@H](C)NC(=O)[C@H](CC(C)C)NC(=O)[C@H](CCCNC(=N)N)NC(=O)[C@H](CCC(N)=O)NC(=O)[C@@H](NC(=O)[C@H](C)NC(=O)[C@@H]1CSSC[C@H](NC(=O)[C@@H](N)CCCCNC(=O)COCCOCCNC(=O)CC[C@H](NC(=O)CCCCCCCCCCCCCCCCCCC(=O)O)C(=O)O)C(=O)N[C@@H](CC(N)=O)C(=O)N[C@@H]([C@@H](C)O)C(=O)N[C@@H](C)C(=O)N[C@@H]([C@@H](C)O)C(=O)N1)[C@@H](C)O)C(=O)N1CCC[C@H]1C(=O)N[C@@H](CO)C(=O)N[C@@H](CO)C(=O)N[C@H](C(=O)N[C@@H](CC(N)=O)C(=O)N[C@H](C(=O)NCC(=O)N[C@@H](CCCNC(=N)N)C(=O)N[C@@H](CC(N)=O)C(=O)N[C@H](C(=O)N[C@@H](Cc1ccc(O)cc1)C(N)=O)[C@@H](C)O)C(C)C)[C@@H](C)O, also called compound 78) | 60.7 | 36.5 |
